Data on four molecules can be found in patent US20060183887A1 (Amgen, published 2006).

The target of assay [1] is T1, human epidermal growth factor receptor (EGF-r) on the surface of human carcinoma cells (A431, SW948, … (human, UniProt P00533 25-1210)).
T1 construct: whole, on cells; also called surface expressed EGF-r
Nature of the assay: inhibition of 125I-EGF binding to A431 cells (FIG. 36).

In assay [2] the target is T2, soluble EGF-r purified from A431 cell membranes (Sigma, E-3641) (human, UniProt P00533 25-1210, limits assumed).
T2 construct: The BIAcore methods say that either this protein or the recombinant extracellular domain of EGFr was immobilized; also called purified A431 cell membrane-derived EGFr protein
Nature of the assay: BIAcore, solid phase, antigen immobilized at 228 RU.
Method: Determination of affinity constants of fully human Mabs by BIAcore: Affinity measurement of purified human monoclonal antibodies, Fab fragments, or hybridoma supernatants by plasmon resonance was carried out using the BIAcore 2000 instrument, using general procedures outlined by the manufacturers.
Based upon the general procedures outlined by the manufacture, kinetic analyses of the antibodies were performed using antigens immobilized onto the sensor surface at a low density. […] The dissociation (kd or koff) and association (ka or kₒₙ) rates were determined using the software provided by the manufacturer (BIA evaluation 2.1).

Assay [3] addresses T2, soluble EGF-r purified from A431 cell …. Description: in solution by ELISA, Scatchard analysis.
Method: After incubation, 70 μl of each mixture was transferred into the wells of 96-well microtiter plates previously coated with the same monoclonal antibody (100 μl/well, at 2 μg/ml in coating buffer) and incubated for 15 min at room temperature.
For assay [4], the target named is T1, human epidermal growth factor receptor …. Description: inhibition of [125I]EGF (0.1 nM) binding to A431 cells.
From the text: The plates were washed five times, air-dried and counted in a scintillation counter.
For assay [5] the target is unchanged. Description: inhibition of [125I]EGF binding to SW948 cells.
The target in assay [6] is T2, soluble EGF-r purified from A431 cell …. Nature of the assay: solid phase (BIAcore) and solution measurements.
Assay [7] has the same target. Nature of the assay: BIAcore, solid phase, antigen immobilized at 818 RU. Background: SPR reads the build-up and loss of mass on a sensor chip optically.

B1: antibody secreted by the hybridoma E2.11 (antibody, human IgG2, V domains shown)
VH: VSGGSVSSGDYYWSWIRQPPGKGLEWIGHLYYSGNTNYNPSLKSRVTISLDTSKNQFSLKLSSVTAADTAVYYCARDFLTGSFFDYWGQGTLVTVSS
VL: TITCQASQDISNYLNWYQQKPGKAPKLLINDASDLETGVPSRISGSGSGTDFTFTISNLQPEDIATYYCQQYDSLPLTFGGGTKVEIRR
notes: Fully human IgG2 with a kappa light chain
A word on the Kd: it is the constant that tells how readily two partners part at equilibrium. Read a high Kd as a looser complex. As usually defined, the koff is the first-order rate constant of dissociation. By kon is commonly meant the second-order rate constant of association. Turning to B1, the “concentration at which inhibition of EGF binding begins” value (“concentration at which inhibition” below) in assay [1] is about 8 nM. In assay [2], this molecule came in with a Kd of 0.16 nM, an off-rate constant (koff) of 0.0003 s⁻¹ and a kon of 1.9e+06 M⁻¹ s⁻¹. In assay [3], the Kd was 0.11 nM.

B2: antibody secreted by the hybridoma E7.6.3 (antibody, human IgG2, V domains shown)
VH: VSGGSVSSGDYYWTWIRQSPGKGLEWIGHIYYSGNTNYNPSLKSRLTISIDTSKTQFSLKLSSVTAADTAIYYCVRDRVTGAFDIWGQGTMVTSS
VL: TITCQASQDISNYLNWYQQKPGKAPKLLIYDASNLETGVPSRFSGSGSGTDFTFTISSLQPEDIATYFCQHFDHLPLAFGGGTKVEIKR
notes: Fully human IgG2 with a kappa light chain; also called E7.6.3 MAb
What is called IC50 is the concentration at which inhibition is half-maximal. With B2, the half-maximal inhibitory concentration (IC50) came out at 3 nM in assay [4] and 0.9 nM in assay [5]. For the same molecule, binding in assay [6] was put at a Kd of 0.05 nM.

B3: antibody secreted by the hybridoma E1.1 (antibody, human IgG2, V domains shown)
VH: VSGGSINSGDYYWSWIRQHPGKGLDCIGYIYYSGSTYYNPSLKSRVTISVDTSKNQFFLKLTSVTAADTAVYYCARSTVVNPGWFDPWGQGTLVTVSS
VL: TITCQASQDINNYLNWFQQKPGKAPKVLIHDASNLETGGPSRFSGSGSGTDFTFTISGLQPEDIATYYCQQYESLPLTFGGGTKVEIKR
notes: as for B1
In the case of B3, the “concentration at which inhibition” value in assay [1] is about 8 nM. In assay [3], this molecule yielded a Kd of 0.11 nM.

B4: antibody secreted by the hybridoma E2.4 (antibody, human IgG2, V domains shown)
VH: VSGGSINSGDYYWSWIRQHPGKGLEWIGSIYYSGNTFYNPSLKSRVTISLDTSKNQFSLKLSSVTAADTAVCYCARNIVTTGAFDIWGQGTMVTVSS
VL: TITCQASQDITIYLNWYQQKPGKAPKLLINDASSLETGVPLRFSGSGSGTDFTFTISSLQPEDIATYYCQQYDHLPLTFGGGTKVAIKR
notes: as for B1
Turning to B4, in assay [7], the dissociation constant Kd amounted to 0.035 nM, the dissociation rate constant (koff) amounted to 9.78e-05 s⁻¹ and the kon was 2.8e+06 M⁻¹ s⁻¹. For the same molecule, the “concentration at which inhibition” value in assay [1] is about 8 nM. Binding in assay [3] was put at a Kd of 0.11 nM.
